Assays:
Conditions in all cases: remark: other sources report otherwise
[1] = biological target: SARS-CoV-2 RBD domain, Wuhan (SARS-CoV-2); test: competition ELISA vs bio-Cv2.1169
[2] = biological target: SARS-CoV-2 RBD domain, Wuhan (SARS-CoV-2); test: ELISA; design: unit not given beside the values
[3] = biological target: SARS-CoV-2 RBD domain, Wuhan (SARS-CoV-2); test: RBD-ACE2 competition ELISA; design: unit not given beside the values
[4] = biological target: SARS-CoV-2 RBD domain, Wuhan (SARS-CoV-2); test: competition ELISA vs bio-Cv2.5213
[5] = biological target: SARS-CoV-2 RBD domain, Wuhan (SARS-CoV-2); test: competition ELISA vs bio-Cv2.3194
[6] = biological target: SARS-CoV-2 RBD domain, Wuhan (SARS-CoV-2); test: ELISA; design: unit not given beside the values; remark: listed apart in the source
[7] = biological target: SARS-CoV-2 RBD domain, Wuhan (SARS-CoV-2); test: SPR (Biacore), antibody coupled to CM5 chip, viral protein as analyte
[8] = biological target: T1, SARS-CoV-2 Spike (S) protein on cells (S-Flow assay) (SARS-CoV-2), P0DTC2; test: S-Flow flow cytometry, spike-expressing cells
[9] = biological target: SARS-CoV-2 RBD domain, Wuhan (SARS-CoV-2); test: competition ELISA vs bio-Cv2.3235
[10] = biological target: SARS-CoV-2 RBD domain, Wuhan (SARS-CoV-2); test: RBD-ACE2 competition ELISA; design: unit not given beside the values; remark: listed apart in the source
[11] = biological target: SARS-CoV-2 RBD domain, Wuhan (SARS-CoV-2); test: SPR (Biacore), antibody immobilised
[12] = biological target: SARS-CoV-2 RBD domain, Wuhan (SARS-CoV-2); test: ELISA, coated antigen
[13] = biological target: SARS-CoV-1 Spike ectodomain (SARS-CoV-1), P59594; test: ELISA, coated antigen; further: test concentration or dose not given here
[14] = biological target: CoV-MERS Spike ectodomain (MERS-CoV), K9N5Q8; test: ELISA, coated antigen
[15] = biological target: T1, SARS-CoV-2 Spike (S) protein on cells …; test: flow cytometry, transfected cells
[16] = biological target: SARS-CoV-2 RBD domain, Wuhan (SARS-CoV-2); test: competition ELISA vs bio-Cv2.1353
[17] = biological target: SARS-CoV-2 RBD domain, Wuhan (SARS-CoV-2); test: RBD/ACE2 blocking ELISA
[18] = biological target: SARS-CoV-2 RBD domain, Wuhan (SARS-CoV-2); test: ELISA; design: unit not given beside the values; remark: listed apart in the source
[19] = biological target: T1, SARS-CoV-2 Spike (S) protein on cells …; test: flow cytometry (Mock 2.5)
[20] = biological target: SARS-CoV-2 RBD domain, Wuhan (SARS-CoV-2); test: ELISA
Wherever % inhibition (competition) is given: test concentration or dose not given here.

Row | Binder | % inhibition (competition) [1] | AUC (RBD block.) [3] | % inhibition (competition) [4] | % inhibition (competition) [5] | AUC (RBD bind.) [6] | S-Flow (%) [8] [%] | S-Flow (MFI) [8] [MFI] | % inhibition (competition) [9] | AUC (RBD block.) [10] | Kd [11] [nM] | ELISA OD [12] [OD] | ELISA OD [13] [OD] | ELISA OD [14] [OD] | log10 ΔgMFI [15] | % inhibition (competition) [16] | further results
1 | Cv2.1353 (recombinant human IgG1) (antibody) heavy: EVQLVESGGGLVQPGGSLRLSCAASGVTVSSNYMNWVRQAPGKGLEWVSVIYSGGSTFYADSVKGRFIISRDNSKNTLYLQMNSLKTEDTAVYYCARDLGPMGFDIWGQGTMVTVSSASTKGPSVFPLAPSSKSTSGGTAALGCLVKDYFPEPVTVSWNSGALTSGVHTFPAVLQSSGLYSLSSVVTVPSSSLGTQTYICNVNHKPSNTKVDKKVEPKSCDKTHTCPPCPAPELLGGPSVFLFPPKPKDTLMISRTPEVTCVVVDVSHEDPEVKFNWYVDGVEVHNAKTKPREEQYNSTYRVVSVLTVLHQDWLNGKEYKCKVSNKALPAPIEKTISKAKQPREPQVYTLPPSRDELTKNQVSLTCLVKGFYPSDIAVEWESNGQPENNYKTTPPVLDSDGSFFLYSKLTVDKSRWQQGNVFSCSVMHEALHNHYTQKSLSLSPGK light: DIQMTQSPSFLSASVGDRVTITCRASQGISSYLAWYQQKPGKAPKLLIYAASTLQSGVPSRFSGSGSGTEFTLTISSLQPEDFATYYCQQLNSDPPVTFGPGTKVDIKRTVAAPSVFIFPPSDEQLKSGTASVVCLLNNFYPREAKVQWKVDNALQSGNSQESVTEQDSKDSTYSLSSTLTLSKADYEKHKVYACEVTHQGLSSPVTKSFNRGEC | 62 | 158 | 78 | 74 | 12 | 95 | 270000 | 80 | 315 | 2.24 | 3.5 | 0.1 | 0.1 | 4 | 74 | AUC (RBD bind.) [2]: 13; Kd [7]: < 1 pM
2 | Cv2.5213 (recombinant human IgG1) (antibody) heavy: EVQLVESGGGLIQPGGSLRLSCAASGFTVSSNYMSWVRQAPGKGLEWVSLIYSGGSTYYADSVKGRFTISRDNSKNTLYLQMNSLRAEDTAVYYCARDLNYYGMDVWGQGATVTVSSASTKGPSVFPLAPSSKSTSGGTAALGCLVKDYFPEPVTVSWNSGALTSGVHTFPAVLQSSGLYSLSSVVTVPSSSLGTQTYICNVNHKPSNTKVDKKVEPKSCDKTHTCPPCPAPELLGGPSVFLFPPKPKDTLMISRTPEVTCVVVDVSHEDPEVKFNWYVDGVEVHNAKTKPREEQYNSTYRVVSVLTVLHQDWLNGKEYKCKVSNKALPAPIEKTISKAKQPREPQVYTLPPSRDELTKNQVSLTCLVKGFYPSDIAVEWESNGQPENNYKTTPPVLDSDGSFFLYSKLTVDKSRWQQGNVFSCSVMHEALHNHYTQKSLSLSPGK light: not shown | 43 | 141 | 77 | 61 | 13 | 95 | 270000 | 80 | 283 | 162 | 3.5 | 0.1 | 0.1 | 4 | 67 | 
3 | Cv2.3235 (recombinant human IgG1) (antibody) heavy: EVQLVESGGGLIQPGGSLRLSCAASGFTVSRNYMSWVRQAPGKGLEWVSVIYSGGSTFYADSVKGRFTISRDNSKNTLYLQMNSLRAEDTAVYYCARDGDYYGMDVWGQGTTVTVSSASTKGPSVFPLAPSSKSTSGGTAALGCLVKDYFPEPVTVSWNSGALTSGVHTFPAVLQSSGLYSLSSVVTVPSSSLGTQTYICNVNHKPSNTKVDKKVEPKSCDKTHTCPPCPAPELLGGPSVFLFPPKPKDTLMISRTPEVTCVVVDVSHEDPEVKFNWYVDGVEVHNAKTKPREEQYNSTYRVVSVLTVLHQDWLNGKEYKCKVSNKALPAPIEKTISKAKQPREPQVYTLPPSRDELTKNQVSLTCLVKGFYPSDIAVEWESNGQPENNYKTTPPVLDSDGSFFLYSKLTVDKSRWQQGNVFSCSVMHEALHNHYTQKSLSLSPGK light: DIQMTQSPSFLSASVGDRVTITCRASQGISSFLAWYQQKPGKAPKLLIYGASTLQSGVTSRFSGSGSGTEFTLTISSLQPEDFATYYCQRLDSYPPITFGQGTRLEIKRTVAAPSVFIFPPSDEQLKSGTASVVCLLNNFYPREAKVQWKVDNALQSGNSQESVTEQDSKDSTYSLSSTLTLSKADYEKHKVYACEVTHQGLSSPVTKSFNRGEC | 14 | 114 | 47 | 37 | 13 | 97 | 170000 | 65 | 229 | 280 | 3.9 | 0.2 | 0.2 | 4 | 37 | 
4 | ADG-2 (antibody, V domains shown) VH: EVQLVESGGGLVKPGGSLRLSCAASGFTFSSYYMNWVRQAPGKGLEWVSSISEDGYSTYYPDSLKGRFTISRDSAKNSLYLQMNSLRADDTAVYYCARDFSGHTAWAGTGFEYWGQGTLVTVSS VL: QSVLTQPPSVSGAPGQRITISCTGSSSNIGAGYDVHWYQQLPGTAPKLLIYGSSSRNSGVPDRFSGSKSGTSASLAITGLQAEDEADYYCQSYDSSLSVLYTFGTGTKVTVL |  |  |  |  |  |  |  |  |  |  |  |  |  |  |  | % binding inhibition [17]: 94%; AUC [18]: 3
5 | Adintrevimab (antibody, V domains shown) VH: EVQLVESGGGLVKPGGSLRLSCAASGFTFSSYYMNWVRQAPGKGLEWVSSISEDGYSTYYPDSLKGRFTISRDSAKNSLYLQMNSLRADDTAVYYCARDFSGHTAWAGTGFEYWGQGTLVTVSS VL: QSVLTQPPSVSGAPGQRITISCTGSSSNIGAGYDVHWYQQLPGTAPKLLIYGSSSRNSGVPDRFSGSKSGTSASLAITGLQAEDEADYYCQSYDSSLSVLYTFGTGTKVTVL |  |  |  |  |  |  |  |  |  |  |  |  |  |  |  | log10 ΔgMFI [19]: 4.4; OD405nm [20]: 3.3
6 | COV2-2130 (antibody, V domains shown) VH: EVQLVESGGGLVKPGGSLRLSCAASGFTFRDVWMSWVRQAPGKGLEWVGRIKSKIDGGTTDYAAPVKGRFTISRDDSKNTLYLQMNSLKTEDTAVYYCTTAGSYYYDTVGPGLPEGKFDYWGQGTLVTVSS VL: not shown |  |  |  |  |  |  |  |  |  |  |  |  |  |  |  | % binding inhibition [17]: 96%; AUC [18]: 3
7 | Cilgavimab (antibody, V domains shown) VH: EVQLVESGGGLVKPGGSLRLSCAASGFTFRDVWMSWVRQAPGKGLEWVGRIKSKIDGGTTDYAAPVKGRFTISRDDSKNTLYLQMNSLKTEDTAVYYCTTAGSYYYDTVGPGLPEGKFDYWGQGTLVTVSS VL: not shown |  |  |  |  |  |  |  |  |  |  |  |  |  |  |  | OD405nm [20]: 3.2

Reference: US20240336672A1
